# Experimental data taken from patent US20240254227A1 (Alector, published 2024).
# Substitutions are numbered along the chain they refer to.
# T1: recombinant human CD300LB overexpressed on Jurkat cells (human, UniProt A8K4G0 18-201)
# T1 construct: also called huCD300LB; huCD300LB-expressing Jurkat cells
# T1 sequence: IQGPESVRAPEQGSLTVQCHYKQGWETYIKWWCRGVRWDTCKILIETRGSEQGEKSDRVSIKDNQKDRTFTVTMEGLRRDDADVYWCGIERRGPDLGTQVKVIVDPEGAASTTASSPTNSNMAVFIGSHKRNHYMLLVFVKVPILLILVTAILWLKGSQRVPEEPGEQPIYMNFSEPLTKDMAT
# T2: murine CD300LB stably expressed on Jurkat cells (mouse, UniProt Q3U497 18-209)
# T2 construct: also called muCD300LB; mouse CD300LB
# T2 sequence: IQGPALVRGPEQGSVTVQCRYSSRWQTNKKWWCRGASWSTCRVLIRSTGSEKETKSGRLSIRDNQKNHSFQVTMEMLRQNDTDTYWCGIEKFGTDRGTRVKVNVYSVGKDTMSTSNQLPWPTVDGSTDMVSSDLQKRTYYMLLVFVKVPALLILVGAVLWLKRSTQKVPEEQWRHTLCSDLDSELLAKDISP
# T3: human CD300LB transiently expressed on HEK293 cells (human, UniProt A8K4G0 18-201)
# T3 construct: CD300LB expression constructs'; also called huCD300LB HEK293
# T3 sequence: T1 sequence
# B1: anti-CD300LB antibody CD-13 (antibody, V domains shown)
# VH: QIQLVQSGPELKKPGETVKISCKASGYTFTDYSMHWVKQAPGKGFKWMAWINTETGAPTHADDFRGRFAFSLETSASTAFLQISNLKTEDTATYFCVTFGKSYGMNYWGQGTSVTVSS
# VL: DIVLTQSPASLSVSLGQRATISCRASKSVGSSGSSYLHWYQQKPGQPPKLLIYLASNLESGVPARFSGSGSGTEFTLNIHPVEEEDAATYYCQHNAEVPPTFGGGTKLEIK
# B2: anti-CD300LB antibody CD-14 (antibody, V domains shown)
# VH: QIQLVQSGPELKKPGETVKISCKASGYTFTDYSLHWVKQTPEKNLKWMAWINTETGAPTYADDFKGRFAFSLETSSNTAYLLINNLKNEDTATYFCALTMVNYWGQGTTLTVSS
# VL: DIVMTQSQKFMSTSVGDRVSVTCKASQNVGIRVAWHQQKPGQSPKTLIYSTSYRYSGVPDRFTGSGSGTEFILTISNVQSEDLAEYFCQQYNSYPYTFGGGTKLEIK
# B3: anti-CD300LB antibody CD-11 (antibody, V domains shown)
# VH: QIQLVQSGPEVKKPGETVKISCKASGYTLTDYSMHWVMQTPGTGLKWMAWMNTETGEPTYADDFKGRFAFSLETSAGTAYLQIDNLKNEDTATYFCATYGKSYGMKYWGQGTSVTVSS
# VL: DIVLTQSPPSLAVSLGQRATISCRATKSVSPYLHWYQQTPGQPPKLLIYLASNLDSGVPARFSGSGSGTDFTLNIHPVEEEDAATYYCQHNKELPPTFGGGTRLEIK
# B4: anti-CD300LB antibody CD-02 (antibody, V domains shown)
# VH: QVQLQQPGAELVRPGSSVKLSCQASGYTFTNYWMHWVRQRPIQGLEWIGNIDPSDSETHYNQKFKDRATLTVDKSSSTAYMQLSSLTSEDSAVYYCARSGVYDDEGGDYWGQGTTLTVSS
# VL: ENVLTQSPAIMSASPGEKVTMTCSASSSVSYIHWYQQKSSTSPKLWIYDTSKLASGVPGRFSGSGSGNSYSLTISSMETEDVATYYCFQGSGYPLTFGAGTKLELK
# B5: anti-CD300LB antibody CD-01 (antibody, V domains shown)
# VH: RVQLQQSGAELVRPGASVTLSCKASGFTFTDFEMHWVKKTPVHGLEWIGAIDPESGNTAYNQKFRGKATLTADKSSSTAYMELRYLTSEDSAVYYCTPLISGADYWGQGTTLTVSS
# VL: DVVMTQSPLSLPVSLGDQASISCRSSQSLVHSDGNTYLYWYLQKPGQSPKLLIYKVSNRFSGVPDRFSGSGSGTDFTFKISRVGAEDLGVYFCSQSTHVPWTFGGGTKLEII
# B6: anti-CD300LB antibody CD-05 (antibody, V domains shown)
# VH: QVQLVQSGAEVKKPGASVKVSCKASGYTFSRYYINWVRQAPGQGLEWMGWINPNSGGTNYAQKFQGRVTMTRDTSTSTVYMELSSLRSEDTAVYYCTTDQLRFGKTGPYYGMDVWGQGTTVTVSS
# VL: DIQMTQSPSSLSASVGDRVTITCRASQNIGTYLNWYQQKPGKAPKLLIYAASSLQSGVPSRFSGSGSGTDFTLTISSLQPEDFATYYCQQSYSDTLTFGGGTKVEIK
# B7: anti-CD300LB antibody CD-06 (antibody, V domains shown)
# VH: QVQLVQSGAEVKKPGASVKVSCKASGYTFTTYAVHWVRQAPGQGLEWMGIVNPNSGGTNYAQKFQGRVTMTRDTSTSTVYMELSSLRSEDTAVYYCARDIVPMNNFYNYYYGMDVWGQGTTVTVSS
# VL: B6 VL with N28S, G30S, T31S, A51T, S53T, S93R, D94I, T95P, L96Y, G100Q
# B8: anti-CD300LB antibody CD-15 (antibody, V domains shown)
# VH: QIQLVQSGPELKKPGETVKISCQVSGYTFTDYSMHWLKQAPGKGLKWMAWINTETGESTYTDEFKGRFVFSLETSVRTAYLKINNLKNEDTATYFCGTYGSSYGMAYWGQGTSVTVSS
# VL: B1 VL with S12P, G30S, S31T, N57K, S67R, E74D, A96R
# B9: anti-CD300LB antibody CD-16 (antibody, V domains shown)
# VH: QIQLVQSGPELKKPGETVKISCKASGYTFTDYSMHWVKQAPGKGLKWMAWINTETGEPTYADDFRGRFAFSLETSGRTAYLEINNLRNEDTATYFCVTYGSSYGMAYWGQGTSVTVSS
# VL: B1 VL with S12A, G30S, S31R, S34Y, N57K, E74D, E84A, A96R, V98I
# B10: anti-CD300LB antibody CD-12 (antibody, V domains shown)
# VH: QIQLVQSGPELKKPGETVKISCKASGYTFTDYSMHWVRQAPGKGLKWMAWINTETGEATHADDFKGRFDFSLDTSASTAYLQIKNLKNEDTGIYFCVCYGSSYGMDYWGQGTSVTVSS
# VL: B1 VL with S12P, G30R, S31T, S34A, L37M, E59K, A64T, E74D, A96R
# B11: anti-CD300LB antibody CD-03 (antibody, V domains shown)
# VH: EVQLQQSGPELVKPGASVKISCKASGYTFTDYYINWVRQSHGKSLECIGDINPNNGGTNYNQKFKGKATLTVDRSSNTAYMEFRSLTFDDSALYYCAAEGAYWGQGTLVTVSA
# VL: not shown
# B12: anti-CD300LB antibody CD-07 (antibody, V domains shown)
# VH: QVQLVQSGAEVKKPGASVKVSCKASGYTFTNYRMHWVRQAPGQGLEWMGWINPNSGGTIYAQKFQGRVTMTRDTSTSTVYMELSSLRSEDTAVYYCARDLDYWGQGTLVTVSS
# VL: B6 VL with R24Q, N28D, G30S, T31N, A50G, D94T, T95P, L96W, G100P
# Target: T1, recombinant human CD300LB overexpressed …
# Test: flow cytometry, stable Jurkat cells, supernatant or 10 ug/mL, isotype subtracted
# Description: (§1) Purified anti-CD300LB antibodies of the present disclosure were also evaluated for species cross-reactivity to mouse and human CD300LB stably expressed in Jurkat cells (generation of which is described above). Cells were counted and labeled with 200 nM CFSE, 500 nM VioBlue, or a combination of the two to discriminate between human CD300LB, Parental cells and mouse CD300LB. Cells were washed thoroughly with PBS containing 2% fetal bovine serum then resuspended at a total of 240,000 cells per well. Hybridoma supernatants (100 L) or purified antibodies at 10 μg/mL were added and incubated for one hour before the cells were washed again and stained with an APC-labeled anti-human or anti-mouse secondary. Cells were then analyzed using a BD FACSCanto II. Antibodies were analyzed for binding to mouse or human CD300LB by FlowJo software by gating on live cells, then the APC gMFI calculated for each labeled population by subtraction of the gMFI of the appropriate isotype control.
row,gMFI [gMFI],Binder
1,324,B1
2,59,B2
3,50,B3
4,1130,B4
5,309,B5
6,1810,B6
7,3180,B7

# Target: T2, murine CD300LB stably expressed on …
# Test: as above
# Description: as §1
row,gMFI [gMFI],Binder
1,1190,B1
2,506,B8
3,504,B9
4,950,B2
5,320,B3
6,23,B4
7,860,B5
8,172,B6
9,-48.7,B7

# Target: T4, murine CD300A-Fc (mouse)
# T4 construct: hIgG1-Fc fusion; the entry is the whole fusion chain; also called mCD300A; Mouse CD300A-Fc
# T4 sequence (chain, as listed by the source limits assumed): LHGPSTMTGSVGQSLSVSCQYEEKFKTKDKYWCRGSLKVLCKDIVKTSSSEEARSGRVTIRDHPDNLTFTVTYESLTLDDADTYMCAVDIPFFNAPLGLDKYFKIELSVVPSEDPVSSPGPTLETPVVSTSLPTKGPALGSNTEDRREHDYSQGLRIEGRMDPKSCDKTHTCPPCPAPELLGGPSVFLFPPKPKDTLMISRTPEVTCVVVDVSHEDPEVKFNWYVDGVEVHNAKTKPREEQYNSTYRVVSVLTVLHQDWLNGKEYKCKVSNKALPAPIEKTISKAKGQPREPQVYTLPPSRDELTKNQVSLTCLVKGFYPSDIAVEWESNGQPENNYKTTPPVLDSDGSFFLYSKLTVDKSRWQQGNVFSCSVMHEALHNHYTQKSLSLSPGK
# Test: SPR (Carterra LSA), antibody immobilised
# Text: In addition to the screening of antibodies for cross-reactivity by FACS analysis, surface plasmon resonance (SPR) analysis was used to determine the binding of antibodies to recombinant huCD300 and muCD300 family members (orthologs) conjugated to an Fc (human CD300A-Fc SEQ ID NO:144; human CD300LB-Fc SEQ ID NO:145; human CD300C-Fc SEQ ID NO: 146; human CD300D-Fc SEQ ID NO: 147; human CD300E-Fc SEQ ID NO: 148; human CD300F-Fc SEQ ID NO: 149; murine CD300A-Fc SEQ ID NO: 150; murine CD300LB-Fc SEQ ID NO:151; murine CD300C-Fc SEQ ID NO: 152; murine CD300D-Fc SEQ ID NO: 153, and murine CD300E-Fc SEQ ID NO: 154).
# Binding of mouse anti-CD300LB IgG1 antibodies of the present disclosure to human and murine CD300 orthologs were evaluated by surface plasmon resonance (SPR) using a Carterra LSA instrument (Carterra, Salt Lake City, UT). […] A HC200M sensor chip (Carterra) was activated using the single channel flow cell with a 7-minute injection of a 1:1:1 mixture of 100 mM MES pH 5.5, 100 mM sulfo-NHS, 400 mM EDC (all reconstituted in MES pH 5.5; 100 μL of each mixed in vial immediately before running assay). After switching to the multi-channel array flow cell, the antibodies were injected over the activated chip in a 96-spot array for 10 minutes. The remaining unconjugated active groups on the chip were then blocked by injecting 1M Ethanolamine pH 8.5 (Carterra) for 7 minutes using the single channel flow cell. After priming with running buffer (HBS-TE, Carterra) with 0.5 mg/ml BSA (Sigma), the immobilized anti-CD300LB antibodies were tested for their ability to bind human and mouse recombinant CD300LB extracellular domains. Human CD300 family members and mouse CD300A were hIgG1-Fc fusions, while mouse CD300LB, mouse CD300C, mouse CD300D, and mouse CD300E were mouse IgG2a-Fc fusions (R&D Systems). Binding was assessed by injecting each analyte over the entire antibody array using the single channel flow cell. CD300 analytes were diluted to 300 nM or 600 nM in running buffer and injected in series without regeneration. Two or three buffer blanks were run between each mouse or human ortholog, respectively. Data were processed and analyzed using NextGenKIT high-throughput kinetics analysis software (Carterra).
row,binding result,Binder
1,no binding (tested: 300 nM or 600 nM),B10
2,no binding (tested: 300 nM or 600 nM),B1
3,no binding (tested: 300 nM or 600 nM),B8
4,no binding (tested: 300 nM or 600 nM),B9
5,no binding (tested: 300 nM or 600 nM),B2
6,no binding (tested: 300 nM or 600 nM),B3

# Target: T3, human CD300LB transiently expressed on …
# Test: flow cytometry, transfected HEK293, 10 ug/mL, isotype subtracted
# Description: In addition, supernatants or purified antibodies were tested for species crossreactivity by comparing the binding of human, mouse, and cynomolgous monkey CD300LB expressing cell lines. HEK293 were transfected with […] of human, mouse, and cyno CD300LB expression constructs using the Mirus system in 10 cm tissue culture dishes. Cells were then incubated for 24 hours in complete medium. Cells were harvested by incubation in TrypLE Express, then washed with PBS and labeled with 200 nM CFSE, 500 nM VioBlue, or a combination of the two to discriminate between human, mouse, and cyno CD300LB expressing cells. Cells were washed thoroughly with PBS containing 2% fetal bovine serum then resuspended at a total of 240,000 cells per well. Purified antibodies at 10 μg/mL were added and incubated for one hour before the cells were washed again and stained with an APC-labeled anti-human or anti-mouse secondary. Cells were then analyzed using a BD FACSCanto II. Antibodies were analyzed for specific binding to human, mouse, or cyno CD300LB by FlowJo software by gating on live cells, then the APC gMFI calculated for each labeled population minus the gMFI of the isotype control.
row,gMFI [gMFI],Binder
1,38.7,B11
2,578,B4
3,166,B5
4,686,B12
5,933,B6
6,314,B7
